# Results taken from publication PMC8389677, “Time-Resolved Studies of Ytterbium Distribution at Interfacial Surfaces of Ferritin-like Dps Protein Demonstrate Metal Uptake and Storage Pathways” (Biomedicines, 2021).
# B1: Listeria innocua Dps (DNA binding protein from starved cells) (natural protein)
# chain: MKTINSVDTKEFLNHQVANLNVFTVKIHQIHWYMRGHNFFTLHEKMDDLYSEFGEQMDEVAERLLAIGGSPFSTLKEFLENASVEEAPYTKPKTMDQLMEDLVGTLELLRDEYKQGIELTDKEGDDVTNDMLIAFKASIDKHIWMFKAFLGKAPLE
# notes: Dps (ferritin-like protein) of Listeria innocua; Homo-dodecameric cage; Crystals in space group P41212 have six monomers in the asymmetric unit; Crystals were soaked with 10 mM YbCl3 for 30 or 120 min; PDB 1QGH was the search model for molecular replacement; also called LiDps; Apo-Dps; copies: 12
# Target: the molecule itself
# Assay: crystal structure; apo-LiDps crystals (hanging drop, 100 mM HEPES pH 7.5, 12.5-20.0% PEG 1500, 21 °C) soaked 30 or 120 min in 10 mM YbCl3; space group P41212 with six monomers in the asymmetric unit; data at 100 K
protein,measurement,value
B1,stoichiometry N,12
